Source: FireProtDB (doi:10.1093/protein/15.6.455)

Conditions: pH 3.6, Thermal, DSC, sodium acetate 50 mM, reversible: yes, whole UniProt chain shown; for heat capacity change of unfolding / unfolding enthalpy (calorimetric): 62.6 °C
[1] = Pseudomonas aeruginosa (strain ATCC 15692 / DSM 22644 / CIP 104116 / JCM 14847 / LMG 12228 / 1C / PRS 101 / PAO1)
[2] = Hydrogenobacter thermophilus (strain DSM 6534 / IAM 12695 / TK-6)

| Protein | heat capacity change of unfolding [1] [kcal/mol/K] | unfolding enthalpy (calorimetric) [1] [kcal/mol] | Tm [1] [°C] | heat capacity change of unfolding [2] [kcal/mol/K] | unfolding enthalpy (calorimetric) [2] [kcal/mol] | Tm [2] [°C] |
| --- | --- | --- | --- | --- | --- | --- |
| Cytochrome c-551 wild type, P00099 (protein) MKPYALLSLLATGTLLAQGAWAEDPEVLFKNKGCVACHAIDTKMVGPAYKDVAAKFAGQAGAEAELAQRIKNGSQGVWGPIPMPPNAVSDDEAQTLAKWVLSQK | 0.72 | 60.8 | 62.6 | – | – | – |
| Cytochrome c-552 wild type, P15452 (protein) MKKFLLVAVVGLAGITFANEQLAKQKGCMACHDLKAKKVGPAYADVAKKYAGRKDAVDYLAGKIKKGGSGVWGSVPMPPQNVTDAEAKQLAQWILSIK | – | – | – | 0.54 | 69.5 | 94 |
